Measured values: PMC12256043, “Integrated platform for structural and functional analysis of terpene synthases of Cannabis sativa” (PeerJ, 2025)

Assays:
Test in all cases: malachite green assay coupled to inorganic pyrophosphatase
Settings in all cases: pH 7.5, 5 mM MgCl2, 37 °C, 30 min
CsTPS13PK = target: T1, CsTPS13PK (Cannabis sativa, UniProt A0A1V0QSG1); type: biochemical
T1 construct: gene TPS13PK; E. coli BL21(DE3); monomer
Text: malachite green assay coupled to inorganic pyrophosphatase on CsTPS13PK

CsTPS12PK = target: T2, CsTPS12PK (Cannabis sativa, UniProt A0A1V0QSF4); type: biochemical
T2 construct: gene TPS33PK; printed as CsTPS12PK/CsTPS33PK; E. coli; monomer
T2 sequence (A0A1V0QSF4 34-615): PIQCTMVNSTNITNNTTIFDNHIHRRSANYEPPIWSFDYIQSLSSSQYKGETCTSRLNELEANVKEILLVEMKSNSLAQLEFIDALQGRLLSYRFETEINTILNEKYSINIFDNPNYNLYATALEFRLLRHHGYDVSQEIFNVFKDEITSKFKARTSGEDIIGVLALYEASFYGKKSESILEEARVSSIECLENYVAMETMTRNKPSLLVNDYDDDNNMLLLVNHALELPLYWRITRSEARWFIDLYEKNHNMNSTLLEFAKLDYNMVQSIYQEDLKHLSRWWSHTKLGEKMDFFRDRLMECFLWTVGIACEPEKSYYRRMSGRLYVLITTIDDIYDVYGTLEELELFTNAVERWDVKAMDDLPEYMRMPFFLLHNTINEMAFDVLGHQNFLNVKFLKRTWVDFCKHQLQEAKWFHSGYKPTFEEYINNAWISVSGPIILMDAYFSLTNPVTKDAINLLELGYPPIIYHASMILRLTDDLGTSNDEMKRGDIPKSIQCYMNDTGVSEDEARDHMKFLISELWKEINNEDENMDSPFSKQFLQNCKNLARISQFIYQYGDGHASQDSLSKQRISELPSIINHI
Text: malachite green assay coupled to inorganic pyrophosphatase on CsTPS12PK

[1] = substrate: CC(C)=CCC/C(C)=C/COP(=O)(O)OP(=O)(O)O; type: biochemical, Cannabis sativa
Text: malachite green assay coupled to inorganic pyrophosphatase on CsTPS3FN

[2] = substrate: CC(C)=CCC/C(C)=C/CC/C(C)=C/CO[P@@](=O)(O)OP(=O)(O)O; type: biochemical, Cannabis sativa
Text: malachite green assay coupled to inorganic pyrophosphatase on CsTPS16CC

[3] = substrate: CC(C)=CCC/C(C)=C/CC/C(C)=C/CO[P@@](=O)(O)OP(=O)(O)O; type: biochemical, Cannabis sativa; remark: listed apart in the source
Text: malachite green assay coupled to inorganic pyrophosphatase on CsTPS20CT

[4] = substrate: CC(C)=CCC/C(C)=C/COP(=O)(O)OP(=O)(O)O; type: biochemical, Cannabis sativa; remark: listed apart in the source
Text: malachite green assay coupled to inorganic pyrophosphatase on CsTPS1SK

[5] = substrate: CC(C)=CCC/C(C)=C/COP(=O)(O)OP(=O)(O)O; type: biochemical, Cannabis sativa; remark: listed apart in the source

T1 sequence (A0A1V0QSG1 41-640): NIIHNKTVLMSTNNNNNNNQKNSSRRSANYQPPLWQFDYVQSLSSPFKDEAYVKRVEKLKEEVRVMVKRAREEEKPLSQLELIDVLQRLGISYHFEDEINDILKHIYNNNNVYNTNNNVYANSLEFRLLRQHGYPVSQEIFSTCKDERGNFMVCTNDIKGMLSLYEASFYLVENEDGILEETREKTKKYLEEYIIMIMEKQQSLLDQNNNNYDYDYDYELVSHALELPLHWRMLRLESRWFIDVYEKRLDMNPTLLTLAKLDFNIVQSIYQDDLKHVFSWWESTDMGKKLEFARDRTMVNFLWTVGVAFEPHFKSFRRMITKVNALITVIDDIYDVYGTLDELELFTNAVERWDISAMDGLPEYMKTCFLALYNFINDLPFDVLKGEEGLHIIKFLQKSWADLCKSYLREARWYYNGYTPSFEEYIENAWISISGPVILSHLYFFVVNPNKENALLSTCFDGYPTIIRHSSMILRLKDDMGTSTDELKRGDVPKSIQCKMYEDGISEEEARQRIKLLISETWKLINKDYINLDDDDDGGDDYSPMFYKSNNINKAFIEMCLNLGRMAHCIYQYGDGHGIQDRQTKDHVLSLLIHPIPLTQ

## CC(C)=CCC/C(C)=C/COP(=O)(O)OP(=O)(O)O [GPP, geranyl diphosphate]
CsTPS13PK
  Km: 13 ± 1.23 µM
CsTPS12PK
  Km: 41.8 ± 8.29 µM

B1: CsTPS3FN (Cannabis sativa) (protein)
chain: RSANYEPPIWSFDYIQSLSTQYKGESYTRQLNKLKKEVKRMLLRMEINSLALLELIDTLQRLGISYHFKNEINTILKKKYNDNYINNNIITNPNYNNLYATALEFRLLRQHGYTVPQEIFNAFKDKRGKFKTSLSDDIMGVLCLYEASFYAMKHENILEEARIFSTKCLKKYMEKIENEEEKKILLLNDNNINSNLLLINHAFELPLHWRITRSEARWFIDEIYEKKQDMNSTLFEFAKLDFNIVQSTHQEDLQHLSRWWRDCKLGGKLNFARDRLMEAFLWDVGLKFEGEFSYFRRTNARLFVLITIIDDIYDVYGTLEELELFTSAVERWDVKLINELPDYMKMPFFVLHNTINEMGFDVLVEQNFVNIEYLKKSWVDLCKCYLQEAKWYYSGYQPTLEEYTELGWLSIGASVILMHAYFCFTNPITKQDLKSLQLQHHYPNIIKQACLITRLADDLGTSSDELNRGDVPKSIQCYMYDNNATEDEAREHIKFLISETWKDMNKKDEDESCLSENFVEVCKNMARTALFIYENGDGHGSQNSLSKERISTLIITPINIPK
notes: E. coli BL21(DE3); monomer
[1]
  Km: 4.569 ± 0.411 µM

B2: CsTPS16CC (Cannabis sativa) (protein)
chain: MSSQVLASSQKNDKTQNIIRPTTKFHPPIWGDRFLHYNISEQELEYKEGQVEELKEVVRKEIFHGNNKRNIINVSKQLKLIDDVERLGLSYHFESEIEKKLQHIYEITTNNIDHQDQHYYYSNHDEDLHDVSIRFRLLRQHGFNISSNIFEKFKDESGKFKESLKSDIEGMLSLYEASYLSYVEENILDEALAFTTTNLKLVANKKEHPLSHEISLALYRPLRKTLVRLYARHYISIYEKQPSHNKVLLQFAKLDFNLLQSLHKKELSEISRWWKELDLANKLPFARNRIVELYLWILGVFHEPQFSLARKILIKAISMASVADDIYDAYGTFEELELLTEAILRWDISFIDKLSPDYLKTYYKVFLNSYEECEKDLKKEERYKLHYAKESMKKLIQAYFHEAQWLNQGHFPSFDEHLKVSFVSSGYPMLIETSFVGMQDVKTNQVFEWLSTQPKIFRACTIISRFMDDLVSRKFEQERNHVPSTVDCYMKQYGVSEQEACDELNKQVVNLWKEINQEFLRPTSMPSSILVRILNFTKVLDIIYKEGDGYTHVGKLVKDSVAALLIDPIPL
notes: E. coli BL21(DE3); monomer
[2]
  Km: 38.43 ± 2.83 µM

B3: CsTPS20CT (Cannabis sativa) (protein)
chain: MSNIQVLASSQLSDKIIARPTTKFHPSIWGDRFLHYNISEQDLVCKQEKVEELIQVVKKEILSSNHDQLKLIDNLQRLGLSYHFESEIEKLLEQLSITHHQNHHDLHDASLWFRLLRQHGFNVSSSIFEKFKDEEGNFKESLITDVPGLLSLYEASHLSYVGESILDEALAFTTTHLKAIVANSKDHPLSHQISIVLHRPLRKTIERLHARFYISIYEKDASHNKLLLELAKLDFNLLQCFHKKELSEITRWWKEHEFAKKFPFARDRMVELYFWILGVYYEPKYSRARKLLTKVIALTSITDDIYDAYGTIDELQLLTKAIQRWDINCMDKLKQEYLKTYYKVMLDSYEEFEKELKKEELYKLEYAKEEMKRIIGGYFEEARWLNEGYFPSFDEHLRVSYVSSGNVLLIATSFVGMHDVVTHETLDWLSKDPKIVSASTLLSRFMDDIGSRKFEQKRNHIPSTVDCYMKQYGVSEEEAIKELNKRVDTHWKEINEDFIRPAVVPFPILVRVLNFTKIVDLLYKEGDDQYTNVGKVLKESIAALLIDSIPL
notes: E. coli BL21(DE3); monomer
[3]
  Km: 16.86 ± 6.42 µM

B4: CsTPS1SK (Cannabis sativa) (protein)
chain: RSANYGPPIWSFDFVQSLPIQYKGESYTSRLNKLEKDVKRMLIGVENSLAQLELIDTIQRLGISYRFENEIISILKEKFTNNNNNPNPINYDLYATALQFRLLRQYGFEVPQEIFNNFKNHKTGEFKANISNDIMGALGLYEASFHGKKGESILEEARIFTTKCLKKYKLMSSSNNNNMTLISLLVNHALEMPLQWRITRSEAKWFIEEIYERKQDMNPTLLEFAKLDFNMLQSTYQEELKVLSRWWKDSKLGEKLPFVRDRLVECFLWQVGVRFEPQFSYFRIMDTKLYVLLTIIDDMHDIYGTLEELQLFTNALQRWDLKELDKLPDYMKTAFYFTYNFTNELAFDVLQEHGFVHIEYFKKLMVELCKHHLQEAKWFYSGYKPTLQEYVENGWLSVGGQVILMHAYFAFTNPVTKEALECLKDGHPNIVRHASIILRLADDLGTLSDELKRGDVPKSIQCYMHDTGASEDEAREHIKYLISESWKEMNNEDGNINSFFSNEFVQVKQNLGRASQMIYQYGDGHASQNNLSKERVLGLIITPIPM
notes: E. coli BL21(DE3); monomer
[4]
  Km: 7.809 ± 0.678 µM

B5: CsTPS5FN (Cannabis sativa) (protein)
chain: MSLSGLISTTTFKEQPAIVRRSGNYKPPLWDAHFIQSLQVIYTEESYGKRINELKEDVRRILEKEAENPLVKLEQINDLSRLGISYHFEDQIKAILNLTYNNNNALWKKDNLYATALHFKLLRQYGFNPVSSEIFNAFKDEKKEFKESLSKDVKGMVCLYEASFYSFRGEPILDEARDFTTKHLKQYLMMTRQGQNVDHDDDNDLMVKLVEHALELPVHWRMKRLEARWFIDMYAEMSHHHHMNSTFLQLAKLDFNVVQSTYQEDLKHVVRWWKTTSLGERLPFARDRIVEIFLWSVGLKFEPQFRYCRKMLTKIGQLVTTMDDIFDVYGTLDELSLFQHALGRWDINTIDQLPDYMKIFFLATYNVVNEMAYDVLKQNGILIIKYLKKTWTDLCKCYMLEANWYHSGYTPSLEEYIKNGWISIAEPLILVNLYCLITNPIKEDDIDCLLQYPTFIRISGIIARLVDDLGTSSDELKRGDNPKSIQCYMKENGICDEKNGREHIRNLISETWKEMNEARVGESPFSQAFIETAIDFVRTAMMIYQKEQDGVGTNIDHYTKDGIISLFFTSIPI
notes: E. coli BL21(DE3); monomer
[5]
  Km: 23.3 ± 1.34 µM
